US12428663B2, “Identification of DNA polymerase theta inactivation mechanism” (The Johns Hopkins University, priority 2018, dated 2025)

Tested on: primer-template complex 5
Test: Steady-state kinetic analysis of dA incorporation in 5 by Pol θ variants (polymerase activity)
Format: biochemical
Conditions: dA incorporation in 5, 25° C.
Procedure: 1.4.3. Steady-state kinetic analysis of dA incorporation in 5 by Pol θ. Polymerase reactions were conducted with Pol θ (432 pM for wild type Pol θ and 5 nM for K2383A and K2383R), 5′-^32P-5 (50 nM), and a range of dATP concentrations (0.25 μM-100 μM for wild type and 62.5-5000 μM for mutants) at 25° C. in reaction buffer (10 mM Tris HCl pH 8, 25 mM KCl, 10 mM MgCl2, 1 mM BME). The concentration range for dATP and the reaction time were selected so that reactions proceeded no further than 25% (single-hit conditions). In a typical experiment, a 2×DNApolymerase solution was prepared by mixing 5′-^32P-5 (500 nM, 18 μL), 10×reaction buffer (18 μL), 10×Pol θ (4.32 nM for wild type or 50 nM for mutants, 18 μL) in storage buffer (20 mM Tris HCl pH 7, 300 mM NaCl, 10% glycerol, 5 mM BME), and H2O (36 μL). The 2×DNAenzyme solution (3 μL) was mixed with the appropriate 2×dNTP solution (3 μL) to initiate the reaction. Reactions were incubated for 20 s for wild type Pol θ, 1.5 min for K2383R, and 4 min for K2383A, after which, they were quenched with 95% formamide loading buffer containing 25 mM EDTA (6 μL). An aliquot (4 μL) was analyzed by 20% denaturing PAGE run at 55 W for approximately 3.5 h. The gel was analyzed by phosphorimaging, and the data were fit to the Michaelis-Menten equation. The kcat was determined by dividing Vmax by the active concentration of enzyme. […]

B1: wt28: wild type Pol θ catalytic core (residues 1792-2590) (protein, UniProt O75417 1792-2590, looked up, fragment)
chain: GFKDNSPISDTSFSLQLSQDGLQLTPASSSSESLSIIDVASDQNLFQTFIKEWRCKKRFSISLACEKIRSLTSSKTATIGSRFKQASSPQEIPIRDDGFPIKGCDDTLVVGLAVCWGGRDAYYFSLQKEQKHSEISASLVPPSLDPSLTLKDRMWYLQSCLRKESDKECSVVIYDFIQSYKILLLSCGISLEQSYEDPKVACWLLDPDSQEPTLHSIVTSFLPHELPLLEGMETSQGIQSLGLNAGSEHSGRYRASVESILIFNSMNQLNSLLQKENLQDVFRKVEMPSQYCLALLELNGIGFSTAECESQKHIMQAKLDAIETQAYQLAGHSFSFTSSDDIAEVLFLELKLPPNREMKNQGSKKTLGSTRRGIDNGRKLRLGRQFSTSKDVLNKLKALHPLPGLILEWRRITNAITKVVFPLQREKCLNPFLGMERIYPVSQSHTATGRITFTEPNIQNVPRDFEIKMPTLVGESPPSQAVGKGLLPMGRGKYKKGFSVNPRCQAQMEERAADRGMPFSISMRHAFVPFPGGSILAADYSQLELRILAHLSHDRRLIQVLNTGADVFRSIAAEWKMIEPESVGDDLRQQAKQICYGIIYGMGAKSLGEQMGIKENDAACYIDSFKSRYTGINQFMTETVKNCKRDGFVQTILGRRRYLPGIKDNNPYRKAHAERQAINTIVQGSAADIVKIATVNIQKQLETFHSTFKSHGHREGMLQSDQTGLSRKRKLQGMFCPIRGGFFILQLHDELLYEVAEEDVVQVAQIVKNEMESAVKLSVKLKVKVKIGASWGELKDFDV
modifications: catalytic core
Km: 5 ± 1 µM
kcat: 1.08 ± 0.2 s⁻¹
